From the supplement of paper PMC10724198

Assays:
Saccharomyces cerevisiae [1] = assay: protein stability index of tFT-peptide fusion in wild type (PSI (0-1 scale)); higher = more stable (slower turnover); settings: genetic background: wild type
Procedure: (§1)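 MPS profiling in S. cerevisiae of two library types built from selected 12-aa C-degron peptides (IN1, IN2, LN1, LN3, VN2, R1-R5, W1-W3, Atg1 and Rpa12 C-termini): saturation mutagenesis libraries and C-terminal +1 capping libraries (13 aa). Each peptide is fused to the C-terminus of a sfGFP-mCherry timer, after a GGGS linker. Cells are FACS-sorted into 8 mCherry/sfGFP bins and sequenced. PSI runs from 0 (unstable) to 1 (stable), measured once in wild type and in the das1Δ or doa10Δ background.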

Saccharomyces cerevisiae [2] = assay: protein stability index of tFT-peptide fusion in deletion strain of DAS1 (PSI (0-1 scale)); higher = more stable (slower turnover)
Procedure: as §1
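Wherever protein stability index of tFT-peptide fusion in deletion strain of DAS1 is given: PSI is a weighted mean of each variant's read distribution over the sorted stability bins, computed only for variants having over 10 reads in total.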
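Wherever protein stability index of tFT-peptide fusion in wild type is given: PSI derived as read-weighted mean over the 8 sorting bins, only variants exceeding 10 total reads kept, mCherry placed adjacent to the peptide and sfGFP distal.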

| Sequence | protein stability index (Saccharomyces cerevisiae [1]) | protein stability index (Saccharomyces cerevisiae [2]) |
| --- | --- | --- |
| KKAKKGQKQKIN | 0.106 | 0.624 |
| PDKRNHLIKQLN | 0.0992 | 0.575 |
| KKHKKGQQQKIN | 0.162 | 0.571 |
| LVVYLSCVRCIN | 0.109 | 0.335 |
| ARWRVGVWRGAS | 0.304 | 0.686 |
| CTSCGYKFRTNI | 0.601 | 0.701 |
| VRGAVGGWRPVG | 0.667 | 0.671 |
| PDKRNHLIKLLP | 0.595 | 0.596 |
| ARWRVGLWLGAS | 0.467 | 0.618 |
| LKIDRQKMNHQN | 0.241 | 0.676 |
| NRGAVGGWRLVG | 0.164 | 0.665 |
| LVVYLMCVACIN | 0.0154 | 0.0335 |
| FSMQWTFRYWVN | 0.0371 | 0.466 |
| ARWRVGLWRGAH | 0.536 | 0.688 |
| KKHKRGQKQKIN | 0.0579 | 0.617 |
| PSLAASVWRVVG | 0.162 | 0.661 |
| LVVTLSCVACIN | 0.0146 | 0.0408 |
| KKHKKGQKQKGN | 0.61 | 0.616 |
| CTSCGYKFRTNV | 0.53 | 0.681 |
| PSLAASLWRVVG | 0.133 | 0.673 |
| LHVYLSCVACIN | 0.0172 | 0.109 |
| KKHKKHQKQKIN | 0.0431 | 0.521 |
| PSLARSFWRVVG | 0.293 | 0.7 |
| KKHKKMQKQKIN | 0.027 | 0.571 |
| LKILRTKMNHQN | 0.178 | 0.678 |

| Sequence | protein stability index (Saccharomyces cerevisiae [1]) | protein stability index (Saccharomyces cerevisiae [2]) |
| --- | --- | --- |
| VRGAVDGWRLVG | 0.156 | 0.67 |
| CTSCPYKFRTNN | 0.261 | 0.666 |
| RLIQPLPVQFSN | 0.591 | 0.601 |
| PDKHNHLIKLLN | 0.0998 | 0.622 |
| CTSCGSKFRTNN | 0.549 | 0.692 |
| RLIQPLPVQRLN | 0.0805 | 0.643 |
| LTSCGYKFRTNN | 0.197 | 0.666 |
| ARWRVGLWRIAS | 0.088 | 0.677 |
| LKILRQKMNYQN | 0.219 | 0.657 |
| LVVYLSCWACIN | 0.02 | 0.0504 |
| CTSCGYKFRTWN | 0.288 | 0.727 |
| PSLAASFWTVVG | 0.62 | 0.708 |
| LKILRQKMNQQN | 0.218 | 0.676 |
| KKHKKGQKQKVN | 0.208 | 0.599 |
| KKHKKGQKQKWN | 0.305 | 0.587 |
| RLIQPLPVQQLN | 0.125 | 0.596 |
| KKHKKGQKQKIR | 0.676 | 0.595 |
| KKHKKGQKRKIN | 0.275 | 0.655 |
| PSLAASEWRVVG | 0.535 | 0.703 |
| KKHKKGQKDKIN | 0.652 | 0.63 |
| RLIQPLPVQFLNN | 0.432 | 0.663 |
| VRGAVGGWRLIG | 0.146 | 0.674 |
| ARWRVGLWRQAS | 0.0958 | 0.678 |
| TDKRNHLIKLLN | 0.12 | 0.577 |
